Like-named read-outs stand apart in the source and are kept apart here. No end group written: not given here. Where only a bound is given, the exact number is not on record here.

In assay [1] the target is activated protein C (APC) (human).
Assay [2] concerns the target human activated Factor X (Xa) (human).
Assay [3] shares this target. The source holds these as a separate data set.
Assay [4] has as its target Factor Va (activated Factor V).
The target in assay [5] is Factor Va (activated Factor V). The source holds these as a separate data set.
In assay [6] the target is activated protein C (APC) (human). The source holds these as a separate data set.
Assay [7] concerns the target Factor IXa (Homo sapiens (Human)). Also on record: unit not given beside the values.
For assay [8] the target is unchanged.
Assay [9] concerns the target activated protein C (APC) (human). The source holds these as a separate data set.
Assay [10] deals with human activated Factor X (Xa) (human). This is another data set of the same source.
In assay [11] the target is Factor Va (activated Factor V). The source holds these as a separate data set.
The target in assay [12] is Factor Va (activated Factor V). This is another data set of the same source.
Assay [13] has as its target activated protein C (APC) (human). The source holds these as a separate data set.
The target is the same in assay [14]. This is another data set of the same source.
For assay [15], the target named is Factor Va (activated Factor V). This is another data set of the same source.

For the molecule synthetic peptide PC110-124, the Inhibition of APC (%), Xa-1 stage coagulation assay in NHP, 500 µM peptide in [1] was found to be 0%.
On to synthetic peptide PT557-571, for which, in assay [2], the IC50, prothrombinase assay in the absence of Factor Va stood at 80 µM and the IC50, prothrombinase assay in the presence of Factor Va is 40 µM. The molecule further returned an IC50, Factor Xa-1 stage clotting assay in assay [3] of 50 µM.
synthetic peptide PT473-487: the IC50, prothrombinase assay in the presence of Factor Va (1 nM Xa, 0.4 nM Va, 1.2 uM prothrombin) in [4] was 10 µM. The molecule further yielded an IC50, Factor Xa-1 stage clotting assay in assay [3] of 25 µM.
synthetic peptide PC48-62: the Inhibition of APC (%), Xa-1 stage coagulation assay in NHP, 500 µM peptide in [1] stood at 0%.
In assay [3], synthetic peptide PT463-478 displayed an IC50, Factor Xa-1 stage clotting assay of over 500 µM.
Consider synthetic peptide PC65-79, for which, in assay [1], the Inhibition of APC (%), Xa-1 stage coagulation assay in NHP, 500 µM peptide came to 0%.
As for activated protein C (APC) (enzyme), the rate of Factor Va inactivation (% Vi/min), 5 nM APC and 40 nM Va, no phospholipids in assay [5] was determined as 4 % Vi/min.
On to HPAVKFPCGRPWKRM-NH2 (also: native Cys substituted by Ser or Gly, which position not given here) [synthetic peptide PC134-148], for which, in [1], the Inhibition of APC (%), Xa-1 stage coagulation assay in NHP, 500 µM peptide turned out to be 66%. Besides, the 50% inhibition of APC anticoagulant activity, Xa-1-stage assay in NHP in assay [6] worked out at 250 µM.
As for ARKGKYGIYTKVTAF-NH2 [synthetic peptide X404-418], the IC50, Factor IXa-1 stage clotting assay in assay [7] came to 50. In assay [4], the IC50, prothrombinase assay in the presence of Factor Va (1 nM Xa, 0.4 nM Va, 1.2 uM prothrombin) turned out to be 75 µM. In assay [8], the IC50, tenase assay in the presence of VIIIa worked out at 150 µM. In [3], the IC50, Factor Xa-1 stage clotting assay is 50 µM.
For VTAFLKWIDRSMKTR-NH2 [synthetic peptide X415-429], the IC50, Factor IXa-1 stage clotting assay in assay [7] was 0. Besides, the IC50, prothrombinase assay with or without Factor Va in assay [2] was 500 µM. Besides, the IC50, tenase assay in the presence of VIIIa in [8] stood at 45 µM. In assay [3], this molecule displayed an IC50, Factor Xa-1 stage clotting assay of 115 µM.
As for GRPWKRMEKKRSHLC-NH2 [synthetic peptide PC142-155 with an additional carboxy-terminal cysteine], in assay [9], the APC amidolytic activity towards S-2366, change in A405/5 minutes (none: 0.374) (A405/5 minutes) came out at 0.344. The molecule further showed an Inhibition of APC (%), Xa-1 stage coagulation assay in NHP, 500 µM peptide in assay [1] of 80%. Moreover, the Factor Xa clotting activity in NHP (0.15 nM factor Xa) in assay [10] worked out at 10 µM. In assay [6], the 50% inhibition of APC anticoagulant activity, Xa-1-stage coagulation assay in NHP was determined as 25 µM and the 50% inhibition of APC anticoagulant activity, Xa-1-stage coagulation assay in protein S-depleted plasma was 5 µM. In assay [11], the APC-catalyzed inactivation of Factor Va in the absence of phospholipids came out at 87% and the half-maximal inhibition of the APC-catalyzed inactivation of Factor Va, with phospholipid vesicles turned out to be 50 µM. In [12], the prothrombinase activity in the presence of Factor Va was found to be 40 µM.
For the molecule KRNRTFVLNFIKIPV-NH2 [synthetic peptide PC311-325], the APC amidolytic activity towards S-2366, change in A405/5 minutes (none: 0.374) (A405/5 minutes) in assay [9] turned out to be 0.342. Also, in assay [13], the 50% inhibition of APC anticoagulant activity in APTT and Xa-1-stage assays in NHP and PSDP fell in the range of 7 to 20 µM. The same molecule registered an IC90** (concentration of peptide that inhibits 90% of APC anticoagulant activity), mean of APTT and Xa-1 stage coagulation assays in NHP in assay [14] of 50 µM. In assay [10], this molecule yielded a Factor Xa clotting activity in NHP (0.15 nM factor Xa) of 7 µM. In [5], this molecule came in with an APC-catalyzed inactivation of Factor Va in the absence of phospholipids of 87% and a half-maximal inhibition of the APC-catalyzed inactivation of Factor Va, with phospholipid vesicles of 6 µM. Moreover, the prothrombinase activity in the presence of Factor Va (1 nM Xa, 0.4 nM Va, 1.2 µM prothrombin) in [12] came to 8 µM.
Consider APGYKLGDDLLQCHP-NH2 (also: native Cys substituted by Ser or Gly, which position not given here) [synthetic peptide PC121-135], for which the Inhibition of APC (%), Xa-1 stage coagulation assay in NHP, 500 µM peptide in assay [1] stood at 0%.
QVVNLPIVERPVSKD-NH2 (not fully specified) [synthetic peptide PT481-495] had an IC50, Factor Xa-1 stage clotting assay in assay [3] of over 500 µM.
With YGIYTKVSRYVNWIK-NH2 [synthetic peptide IX395-409], the IC50, Factor IXa-1 stage clotting assay in assay [7] came to 25. Further, in assay [8], the IC50, tenase assay (Factor Xa generation) in the presence of Factor VIIIa worked out at 6 µM and the IC50, tenase assay in the absence of VIIIa was 40 to 60 µM.
The molecule DTLAFWSKHVDGDQC-NH2 (also: native Cys substituted by Ser or Gly, which position not given here) [synthetic peptide PC36-50] returned an Inhibition of APC (%), Xa-1 stage coagulation assay in NHP, 500 µM peptide in assay [1] of 0%.
In the case of KVSRYVNWIKEKTKL-NH2 [synthetic peptide IX400-414], the IC50, Factor IXa-1 stage clotting assay in assay [7] is 50. For the same molecule, the IC50, tenase assay in the presence of Factor VIIIa in [8] was in the range of 100 to 140 µM.
As to HKGRSALVLQYLRVPL-NH2 [synthetic peptide IX315-330], in [7], the IC50, Factor IXa-1 stage clotting assay amounted to 30. Also, in assay [8], the IC50, tenase assay (Factor Xa generation) in the presence of Factor VIIIa is 2 µM and the IC50, tenase assay in the absence of VIIIa was in the range of 40 to 60 µM.
VKFTIRVFNPRNLKI-NH2 [control peptide with a randomized sequence of residues 311-325]: in [10], the Factor Xa clotting activity in NHP (0.15 nM factor Xa) came out at 30%.
The molecule EKGRQSTRLKMLEVPY-NH2 [synthetic peptide X329-344] showed an IC50, Factor Xa-1 stage clotting assay in [3] of 500 µM.
On to LVLQYLRVPLVDRAT-NH2 [synthetic peptide IX321-335], for which the IC50, Factor IXa-1 stage clotting assay in assay [7] was found to be 30. For the same molecule, in [8], the IC50, tenase assay in the presence of Factor VIIIa was in the range of 100 to 140 µM.
KHVDGDQCLVLPLEH-NH2 (also: native Cys substituted by Ser or Gly, which position not given here) [synthetic peptide PC43-57]: the Inhibition of APC (%), Xa-1 stage coagulation assay in NHP, 500 µM peptide in assay [1] was 0%.
In turn, VLNFIKIPVVPHNEC-NH2 [synthetic peptide PC317-331] registered an IC90** (concentration of peptide that inhibits 90% of APC anticoagulant activity), mean of APTT and Xa-1 stage coagulation assays in NHP in assay [14] of 500 µM.
Molecule KLGDDLLQCHPAVKF-NH2 (also: native Cys substituted by Ser or Gly, which position not given here) [synthetic peptide PC125-139] displayed an Inhibition of APC (%), Xa-1 stage coagulation assay in NHP, 500 µM peptide in assay [1] of 30%.
Same read-out and setting: as for RSGWEGRFCQREVSF-NH2 (also: native Cys substituted by Ser or Gly, which position not given here) [synthetic peptide PC81-95], the figure is 40%.
Consider MHKLREGKWRPKSR-NH2 [scrambled peptide with a randomized sequence of residues 142-155], for which the APC amidolytic activity towards S-2366, change in A405/5 minutes (none: 0.374) (A405/5 minutes) in [9] came out at 0.364. In assay [10], this molecule gave a Factor Xa clotting activity in NHP (0.15 nM factor Xa) of 37%. Besides, the prothrombinase activity in the presence of Factor Va in assay [15] worked out at 40%.

(Values after patent US5679639.)
